This passage reports binding result, Kd and EC50 results from US20230303695A1 (SHANGHAI XBH BIOTECHNOLOGY, published 2023).

To fix the notation:
T1: IGSF8 protein without D1 domain (human, UniProt Q969P0 150-579, limits assumed)
T1 construct: domain: D2-4; also called D24; D2-4
T1 sequence (looked up): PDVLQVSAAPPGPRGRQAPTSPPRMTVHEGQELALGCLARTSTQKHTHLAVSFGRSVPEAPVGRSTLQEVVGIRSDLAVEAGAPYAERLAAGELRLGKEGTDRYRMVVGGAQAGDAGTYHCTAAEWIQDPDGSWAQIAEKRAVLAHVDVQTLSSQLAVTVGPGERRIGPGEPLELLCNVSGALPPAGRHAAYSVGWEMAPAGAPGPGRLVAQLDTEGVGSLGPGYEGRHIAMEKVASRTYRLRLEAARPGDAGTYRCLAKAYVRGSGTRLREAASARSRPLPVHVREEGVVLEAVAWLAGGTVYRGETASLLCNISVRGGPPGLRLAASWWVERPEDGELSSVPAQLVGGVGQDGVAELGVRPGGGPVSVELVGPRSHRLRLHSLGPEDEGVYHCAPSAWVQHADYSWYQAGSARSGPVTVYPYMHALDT

T2: D1 domain of IGSF8 (recombinant protein) (human, UniProt Q969P0 28-149, limits assumed)
T2 construct: domain: D1 (Ig V-set domain); also called Ig V-set domain of IGSF8
T2 sequence (looked up): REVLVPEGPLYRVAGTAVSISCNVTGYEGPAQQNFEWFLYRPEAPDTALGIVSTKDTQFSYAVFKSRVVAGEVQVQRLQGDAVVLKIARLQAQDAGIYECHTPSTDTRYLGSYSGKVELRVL

T3: mouse IGSF8 expressed on CT26 cells (mouse, UniProt Q8R366 26-611)
T3 construct: whole, on cells
T3 sequence (looked up): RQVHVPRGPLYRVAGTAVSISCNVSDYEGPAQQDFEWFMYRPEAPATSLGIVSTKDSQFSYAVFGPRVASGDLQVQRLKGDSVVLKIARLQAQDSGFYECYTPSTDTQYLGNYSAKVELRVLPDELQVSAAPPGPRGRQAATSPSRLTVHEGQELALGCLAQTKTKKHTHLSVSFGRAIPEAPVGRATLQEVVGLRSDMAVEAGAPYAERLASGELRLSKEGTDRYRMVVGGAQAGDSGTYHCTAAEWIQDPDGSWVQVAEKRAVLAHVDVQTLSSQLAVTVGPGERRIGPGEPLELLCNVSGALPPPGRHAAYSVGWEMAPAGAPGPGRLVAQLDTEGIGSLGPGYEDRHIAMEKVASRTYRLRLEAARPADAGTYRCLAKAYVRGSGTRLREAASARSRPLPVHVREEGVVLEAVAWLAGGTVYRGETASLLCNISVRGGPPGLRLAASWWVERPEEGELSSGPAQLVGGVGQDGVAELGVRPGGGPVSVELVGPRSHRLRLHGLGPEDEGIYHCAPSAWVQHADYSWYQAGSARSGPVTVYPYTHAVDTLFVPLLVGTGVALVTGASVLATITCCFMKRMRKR

T4: human IGSF8 expressed on the cell surface (human, UniProt Q969P0 28-613)
T4 construct: whole, on cells; also called human IGSF8 on CT26 cells; IGSF8 on MC38 cells
T4 sequence (looked up): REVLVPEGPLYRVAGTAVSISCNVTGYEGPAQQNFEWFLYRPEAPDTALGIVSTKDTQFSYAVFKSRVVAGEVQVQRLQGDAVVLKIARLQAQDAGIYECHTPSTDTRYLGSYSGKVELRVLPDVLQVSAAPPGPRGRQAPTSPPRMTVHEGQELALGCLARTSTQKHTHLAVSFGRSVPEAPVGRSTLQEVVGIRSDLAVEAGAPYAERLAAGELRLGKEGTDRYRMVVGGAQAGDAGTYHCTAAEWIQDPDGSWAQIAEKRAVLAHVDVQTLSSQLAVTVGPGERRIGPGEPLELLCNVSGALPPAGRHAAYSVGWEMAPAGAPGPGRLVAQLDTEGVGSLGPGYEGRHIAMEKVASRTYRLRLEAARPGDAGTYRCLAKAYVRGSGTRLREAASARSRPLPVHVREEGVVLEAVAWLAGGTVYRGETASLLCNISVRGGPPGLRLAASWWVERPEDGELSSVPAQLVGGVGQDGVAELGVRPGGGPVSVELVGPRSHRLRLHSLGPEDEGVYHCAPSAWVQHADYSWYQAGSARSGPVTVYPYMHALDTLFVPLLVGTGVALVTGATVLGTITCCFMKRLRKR

T5: full-length IGSF8 (recombinant antigen of the SPR screen; IGSF8 target antigen of the phage panning) (human, UniProt Q969P0 28-579, limits assumed)
T5 sequence (looked up): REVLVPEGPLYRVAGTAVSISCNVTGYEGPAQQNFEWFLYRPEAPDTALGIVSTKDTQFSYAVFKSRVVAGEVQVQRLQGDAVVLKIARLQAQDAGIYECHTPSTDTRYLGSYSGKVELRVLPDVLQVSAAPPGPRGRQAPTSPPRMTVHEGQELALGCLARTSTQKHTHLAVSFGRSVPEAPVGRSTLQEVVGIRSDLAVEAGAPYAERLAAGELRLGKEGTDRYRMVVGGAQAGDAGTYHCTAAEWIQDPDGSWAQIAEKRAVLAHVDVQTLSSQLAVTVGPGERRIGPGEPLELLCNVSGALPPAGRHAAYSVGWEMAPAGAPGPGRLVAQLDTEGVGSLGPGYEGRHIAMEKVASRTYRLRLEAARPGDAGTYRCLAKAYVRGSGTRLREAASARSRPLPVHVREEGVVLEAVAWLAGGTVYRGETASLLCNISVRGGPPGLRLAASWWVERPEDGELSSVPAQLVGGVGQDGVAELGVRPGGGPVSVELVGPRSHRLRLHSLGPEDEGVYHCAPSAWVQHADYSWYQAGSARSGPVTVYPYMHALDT

B1: KLRC1/KLRD1 heterodimer expressed on CT26 cells (receptor)
chain 1: not shown
chain 2: MAVFKTTLWRLISGTLGIICLSLMSTLGILLKNSFTKLSIEPAFTPGPNIELQKDSDCCSCQEKWVGYRCNCYFISSEQKTWNESRHLCASQKSSLLQLQNTDELDFMSSSQQFYWIGLSYSEEHTAWLWENGSALSQYLFPSFETFNTKNCIAYNPNGNALDESCEDKNRYICKQQLI
notes: whole, on cells; cells co-transfected with both lentiviral constructs; also called KLRC1&D1 heterodimer; KLRC1/D1
B2: Antibody C31 (B46) (antibody, V domains shown)
VH: QVQLVESGGGVVQPGRSLRLSCAASGFTFSTYGMHWVRQAPGKGLEWVAVIWDDGSYKYYGDSVKGRFTISRDNSKNTLYLQMNSLRAEDTAVYYCAGGYSYSYMAIWGKGTTVTVSS
VL: DIVLTQSPSSLSASVGDRVTITCRASQGISTFLNWYQQKPGKAPKLLIYAASSLQSGVPSRFSGSGSGTDFTLTIGSLQPEDFASYFCQQTYSTQWTFGQGTKVEIK
notes: also called mAb-B46 (C31)
B3: Antibody C32 (B104) (antibody, IgG1, V domains shown)
VH: QVQLVQSGAEVKRPGASVKVSCKASGYTFTNDIIHWVRQAPGQRLEWMGWINAGYGNTQYSQNFQDRVSITRDTSASTAYMELISLRSEDTAVYYCARGYYRSPTWFDWWGQGTLVTVSS
VL: ETTLTQSPSSLSASVGDRVTITCRASQSISSWLAWYQQKPGKAPKLLIYKASSLESGVPSRFSGSGSGTEFTLTISSLQPDDFATYYCQQYGDYPYTFGQGTKLEIKR
notes: also called mAb-B104 (C32)
B4: Antibody C33 (1C2) (antibody, V domains shown)
VH: QVQLVESGGGVVQPGRSLRLSCAASGFTFSTYGMHWVRQAPGKGLEWVAVIWDDGSYKYYGDSVKGRFTISRDNSKNTLYLQMNSLRAEDTAVYYCARDGSGWGYAFDIWGQGTMVTVSS
VL: DIQLTQSPSSLSASVGDRVTITCQASQDISEYLNWYQHKPGKAPNPLVFDAANLETGVPPRFSATGSGTDFSLTITSLQPEDFATYYCQQYDSFPYTFGQGTRLDIK
notes: also called mAb-1C2 (C33)
B5: Antibody C36 (1B4) (antibody, V domains shown)
VH: EVQLLESGGGLVQPGGSLRLSCAASGFTFSSYAMSWVRQAPGKGLEWVSGITGSGGSTYYADSVKGRFTISRDNSKNTLYLQMNSLRAEDTAIYYCARGGALDIWGQGTMVTVSS
VL: DIQMTQSPSSLSASVGDRVTITCRASQVIHNYLAWYKQKPGQAPKLLIYSASSLQSGVPSRFSGSGSGTDFTLTISSLQPEDFATYYCQQSYSTPLTFGGGTKVEIKR
notes: also called mAb-1B4 (C36)

In one assay the target is T1, IGSF8 protein without D1 domain. Put plainly: FACS, hFc-tagged proteins on CT26 cells expressing the receptor, MFI normalized to Thy1.1. Here is the method:
KLRC1 also contains a ITIM motif in its intracellular domain, and was known to be a inhibitory receptor of NK or CD8⁺ T cells as part of a heterodimer with KLRD1 on the cell surface. […] Specifically, 100,000 CT26 cells overexpressing the antigens (KIRs or KLRs) were washed with PBS buffer containing 2% FBS, and incubated with 100 μL IGSF8 recombinant proteins or antibodies (5 μg/mL) for 30 minutes on ice. Cells were then washed twice with wash buffer, and incubated with 100 μL of 1:100 anti-human Fc-PE antibody for 15 minutes on ice. Cells were washed twice with wash buffer and analyzed on a FACS analyzer (CytoFlex, Beckman). In these experiments, the mean fluorescence intensity (MFI) of IGSF8 binding to different CT26 cells were normalized by the expression of different KLRs on CT26 cells using an anti-thy1.1 mAb via flow cytometry.
(In general: In flow cytometry, cells or beads pass a laser one at a time.)
As to B1, the binding result is reported as “no binding”.

Another assay concerns the target T2, D1 domain of IGSF8 (recombinant protein). Put plainly: SPR, Biacore T100. For orientation: Surface plasmon resonance follows binding to a sensor surface in real time, without labels.
With B2, the Kd (commonly a measure of binding affinity in units of concentration) was less than 50 nM.
B3: the equilibrium dissociation constant (Kd) was less than 50 nM.
Still for that read-out and setting: the result for B4 reads less than 50 nM.
Same read-out and setting: as for B5, the figure is less than 50 nM.

For another assay, the target named is T3, mouse IGSF8 expressed on CT26 cells. Put plainly: FACS on CT26 cells.
Take B2: the binding result is given as “binds”.
Same read-out and setting: the result for B3 reads “binds”; that for B5, “binds”.

In another assay the target is T4, human IGSF8 expressed on the cell …. Put plainly: FACS on CT26 cells with forced surface expression of human IGSF8. How it is done:
For antibody binding assays based on cell-expressed antigens, 100,000 cells overexpressing the antigen (either the full-length IGSF8 or the D1 domain thereof) were washed with PBS buffer containing 2% FBS, and then incubated with 100 μL of antibodies or IgG of different concentrations for 30 minutes on ice. Cells were then washed twice with wash buffer, and incubated with 100 μL of 1:100 anti-human Fc-PE antibody for 15 minutes on ice. Cells were washed twice with wash buffer and analyzed on a FACS analyzer (CytoFlex, Beckman).
B2: a half-maximal effect (EC50) was put at 2.08 nM.
On the same count and under the same terms, as for B3, the figure is 5.42 nM; as for B4, 6.2 nM.
On the same count and under the same terms, as for B5, the figure is 2.02 nM.

Another assay has as its target T5, full-length IGSF8 (recombinant antigen …). Put plainly: SPR, Biacore T100.
Consider B2, for which the Kd was 7.29 nM.
On the same count and under the same terms, the result for B3 reads 25.9 nM; that for B4, 33.2 nM; that for B5, 4.57 nM.

A further assay deals with T1, IGSF8 protein without D1 domain. Put plainly: FACS, single antibody dose, IGSF8-D24 (D2-D4 with TM, no D1) expressed on CT26 cells.
For the molecule B2, the binding result is “no binding (tested: not shown on the sheet)”.
Regarding B3, the binding result was “no binding (tested: not shown on the sheet)”.
B4: the binding result is given as “no binding (tested: not shown on the sheet)”.
